Entries after “also recorded” stand apart in the source; their conditions may differ.
Tests used:
[1] = tested on: human monocytes; experiment: Monocyte chemotaxis, modified Boyden chamber technique; type: cell-based; details: for Distance migrated in μm: chemoattractant conc. 10^-9 M
Protocol: Chemotaxis was measured using the modified Boyden chamber technique (Snyderman et al.). The leading front method (Zigmond et al.) was used to assess migration of monocytes and lymphocytes through a 8 μm filter (Millipore Corporation, Bedford, Mass.). PMN chemotaxis was measured using a 3 μm filter (Millipore). The purified CAP37 protein (Example 1) used in chemotaxis assays were endotoxin-free as determined by the Limulus Amoebocyte Lysate Assay (Whittaker Bioproducts, Inc., Walkersville, Md.). The dilutions of CAP37 and N-formyl-methionyl-leucyl-phenylalanine (FMLP) were made in Geys buffer (Gibco) containing 2% endotoxin-free bovine serum albumin (BSA). Geys buffer containing 2% BSA served as the negative control, and a […] solution of FMLP as the positive control.
The chambers were incubated in a humidified atmosphere (6.2% CO2) for 2 hours when testing monocytes and lymphocytes, and for 30 minutes when testing PMNs. The filters were then removed and processed as previously described (Snyderman et al.). The cells were viewed using oil immersion and the distance the cells had migrated into the filter was determined over five different fields on the same slide (Zigmond et al.). Triplicate assays were performed for each experimental point.
The three peptides were tested for chemotactic activity towards monocytes using the modified Boyden Chamber technique described in Example 2. The monocyte chemotactic activity of each peptide fragment at concentrations ranging from 10^-7 to 10^-13 M was compared with Geys buffer (negative control), FMLP 10^-8 M (positive control) and purified CAP37 10^-9 M (positive control). […] The effect of peptide 1 on monocyte chemotaxis is illustrated in Table 2 while the effect of peptide 3 on monocyte chemotaxis is illustrated in Table 3.

[2] = tested on: LPS from S. minnesota wild type; LPS from S. minnesota Re mutant; experiment: ELISA, binding of CAP37 to LPS; details: CAP37 at 120 ng/well; LPS 0 to 50 μg/ml
Protocol: (§1) The LPS from S. minnesota wild type, S. minnesota Re mutant, Lipid A from S. minnesota R595, and Lipid A from S. typhimurium Re mutant were applied to microtiter wells at concentrations ranging from 0 to 50 μg/ml and incubated overnight. The trays were then incubated with CAP37 at 120 ng/well for 1 hour at 37° C. The next incubation was with a rabbit antiserum against CAP37 (1:400 dilution) and the color development was as previously described (Pereira et al., 1989) and the absorbance was read at 492 nm.

[3] = tested on: Lipid A from S. minnesota R595; Lipid A from S. typhimurium Re mutant; experiment: ELISA, binding of CAP37 to Lipid A; details: CAP37 at 120 ng/well; Lipid A 0 to 50 μg/ml
Protocol: as §1

[4] = tested on: wild type LPS; experiment: Neutralization of LPS activity, limulus amebocyte lysate (LAL) assay, wild type LPS; type: biochemical
Protocol: Further, the neutralization of LPS activity, as assayed by the limulus amebocyte lysate (LAL) assay, by CAP37 was measured. CAP37 was diluted to the desired concentrations (from 6.2 ng/ml to 500 ng/ml) in geys buffered saline pH 7 (GIBCO). To this wild type LPS (RIBI IMMUNOCHEM) or Re LPS from Salmonella (David Morrison, Kansas Medical Center) was added so that the final concentrations were 0.1, 0.5, 1.0 and 2.0 ng/ml LPS. The tubes were incubated at 37° C. for between 30 to 60 minutes and then assayed in the chromogenic LAL assay, using polymyxin E as a control.
As discussed in Example 11, peptides can be screened for lipopolysaccharide neutralizing capacity using the LAL assay also. The CAP37 peptide was diluted to the desired concentrations (from 125 ng/ml to 4000 ng/ml) in geys buffered saline pH 7 (GIBCO). To this is added the wild type LPS (RIBI IMMUNOCHEM) or Re LPS from Salmonella (David Morrison, Kansas Medical Center) so that the final concentration is 0.1, 0.5, and 1.0 ng/ml LPS. The tubes were incubated at 37° C. for between 30 to 60 minutes and then assayed in the chromogenic LAL assay.

[5] = tested on: Salmonella SH7426; experiment: Bactericidal assay; type: cell-based
Protocol: (§2) An overnight culture of Salmonella typhimurium (or other microorganism of interest, if desired) is set up by inoculating one colony in 5 ml of LB Broth (LB Broth consists of 10 g BACTO tryptone (DIFCO), 5 g BACFO yeast (DIFCO) and 5 g NaCl made up to 1 L with endotoxin free water; add 15 g of BACTO agar (DIFCO) to this broth to make LB agar (autoclave). The culture is incubated at 37° C. with rotation. 100 μl of this overnight culture is then transferred to 5 ml of fresh LB Broth and incubated at 37° C. with rotation for 2 hours. Four ml of this log phase culture is then transferred to a sterile cuvette and the optical density is read at […]. Dilutions of the microorganism are then made in tryptone saline (5 g BAOTO tryptone (DIFCO) and 5 g NaCl made up to 1 L with endotoxin free water, pH 5.5) to give a final concentration of 5×10^3 organisms/ml (an O.D. reading of 0.25 at 520 mm is equivalent to 1×10^8 organisms/ml). The microorganisms are placed at 4° C. until ready to be used.
(§3) The stock solutions of peptides are stored at -20° C. at concentrations of 1 mg/ml of endotoxin-free water. The peptide is diluted out in tryptone saline to the desired concentration. 100 μl of the peptide is added to each well of the microtitre plate (Corning) and then 100 μl of the bacterial suspension (well vortexed) is added. Each assay point is set up in triplicate. 100 μl of a control, consisting of bacteria and tryptone saline (T=0) in the absence of peptide is plated out on LB agar plates. The microliter plate is then incubated at 37° C. for 1 hour. At the end of the incubation time, 100 μl of each sample is plated out on LB agar plates. The T=60 control (consisting of bacteria and tryptone saline in the absence of peptide) is plated out last. The plates are incubated overnight, and the number of colony forming units (CFU) are determined.
(§4) The % killed is determined as follows: [formula]

[6] = tested on: Salmonella SH7518; experiment: Bactericidal assay; type: cell-based, Salmonella typhimurium; details: Salmonella SH7518
Protocol: as §2, §3, §4

[7] = tested on: E. coli; details: (Shafer, 1986); cited from earlier work
[8] = tested on: Ps. aeruginosa; details: (Shafer, 1986); cited from earlier work
[9] = tested on: P. mirabilis Re45; details: (Shafer, 1986); cited from earlier work

B1: CAP37: granule-associated cationic protein (mol. wt. 37,000 daltons) from human PMN, 222 amino acid mature protein (protein)
chain: IVGGRKARPRQFPFLASIQNQGRHFCGGALIHARFVMTAASCFQSQNPGVSTVVLGAYDLRRRERQSRQTFSISSMSENGYDPQQNLNDLMLLQLDREANLTSSVTILPLPLQNATVEAGTRCQVAGWGSQRSGGRLSRFPRFVNVTVTPEDQCRPNNVCTGVLTRRGGICNGDGGTPLVCEGLAHGVASFSLGPCGRGPDFFTRVALFRDWIDGVLNNPGP
[1]; Table 2
  Distance migrated in μm: 78.4 μm
[1]; Table 3
  Distance migrated in μm: 73.6 μm
[1]; modified Boyden chamber
  monocyte chemotactic activity (in words): as effective as FMLP; also recorded: strong chemotactic properties
[2]
  binding to LPS (ELISA): capable of binding Re LPS
[3]
  binding to Lipid A (ELISA): capable of binding LPS and, in particular, Lipid A; also recorded: able to bind to Lipid A better than wild type LPS
[4]
  neutralization of wild type LPS activity (LAL assay): significantly neutralized LPS activity
[5]
  % survival with CAP 37: 64.3%
[6]
  % survival with CAP 37: 10.9%
[7]
  % survival with CAP 37: 4%
[8]
  % survival with CAP 37: 36%
[9]
  % survival with CAP 37: 100%

From patent US5458874A, “Method of increasing monocyte chemotaxis with CAP37 and monocyte chemotactic portions thereof” (Emory University, priority 1992, dated 1995)
